In publication PMC8669613:
Where two headings read alike, the source gives them in different places.

Key:
[1] = molecular target: HA-mCherry-tagged SdhA (Legionella pneumophila); assay: co-IP
[2] = molecular target: His-tagged ASH/RhoGAP domain of OCRL (536aa-901aa) (human) (UniProt Q01968); assay: ELISA
[3] = molecular target: His-tagged ASH/RhoGAP domain of OCRL (536aa-901aa) (human) (UniProt Q01968); assay: ELISA; remark: listed apart in the source
[4] = molecular target: His-tagged ASH/RhoGAP domain of OCRL (536aa-901aa) (human) (UniProt Q01968); assay: ELISA; remark: listed apart in the source

Sequence of His-tagged ASH/RhoGAP domain of OCRL (536aa-901aa) (human) (Q01968 536-901): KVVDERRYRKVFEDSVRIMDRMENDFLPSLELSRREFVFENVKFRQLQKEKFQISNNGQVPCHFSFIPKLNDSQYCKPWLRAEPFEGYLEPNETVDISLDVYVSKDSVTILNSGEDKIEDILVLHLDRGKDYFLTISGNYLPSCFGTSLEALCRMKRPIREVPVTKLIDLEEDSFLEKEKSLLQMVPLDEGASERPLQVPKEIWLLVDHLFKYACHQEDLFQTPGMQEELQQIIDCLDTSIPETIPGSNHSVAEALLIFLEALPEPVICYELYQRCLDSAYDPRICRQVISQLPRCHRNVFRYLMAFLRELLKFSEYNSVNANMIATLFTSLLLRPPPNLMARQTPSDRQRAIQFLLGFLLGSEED
Sequence of AP complex beta subunit (P63010 whole entry, one chain of several): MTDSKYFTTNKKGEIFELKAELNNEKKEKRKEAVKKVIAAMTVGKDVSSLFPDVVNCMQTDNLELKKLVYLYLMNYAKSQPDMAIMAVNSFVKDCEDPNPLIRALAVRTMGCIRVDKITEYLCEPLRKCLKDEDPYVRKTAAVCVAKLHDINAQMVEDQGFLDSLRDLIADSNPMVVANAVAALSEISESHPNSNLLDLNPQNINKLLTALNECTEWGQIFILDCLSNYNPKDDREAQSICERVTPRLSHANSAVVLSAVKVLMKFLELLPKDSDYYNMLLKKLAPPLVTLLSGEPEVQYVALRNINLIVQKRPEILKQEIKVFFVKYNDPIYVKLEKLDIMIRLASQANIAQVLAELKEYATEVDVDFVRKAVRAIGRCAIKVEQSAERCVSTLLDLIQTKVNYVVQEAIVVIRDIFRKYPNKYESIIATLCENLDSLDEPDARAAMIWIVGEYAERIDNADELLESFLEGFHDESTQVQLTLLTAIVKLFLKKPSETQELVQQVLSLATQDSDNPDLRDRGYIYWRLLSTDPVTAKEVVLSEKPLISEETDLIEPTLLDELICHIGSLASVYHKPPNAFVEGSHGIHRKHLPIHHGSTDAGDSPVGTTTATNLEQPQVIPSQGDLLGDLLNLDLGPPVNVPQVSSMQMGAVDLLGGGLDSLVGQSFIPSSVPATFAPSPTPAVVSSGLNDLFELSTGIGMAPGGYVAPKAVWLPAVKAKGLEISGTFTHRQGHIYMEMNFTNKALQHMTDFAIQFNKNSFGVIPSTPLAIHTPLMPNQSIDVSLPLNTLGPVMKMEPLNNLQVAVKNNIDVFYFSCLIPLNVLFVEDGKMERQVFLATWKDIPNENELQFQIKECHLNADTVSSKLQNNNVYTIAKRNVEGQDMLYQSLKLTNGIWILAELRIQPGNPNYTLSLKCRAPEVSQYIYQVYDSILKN
Sequence of GFP-tagged, full-length OCRL (Q01968 whole entry): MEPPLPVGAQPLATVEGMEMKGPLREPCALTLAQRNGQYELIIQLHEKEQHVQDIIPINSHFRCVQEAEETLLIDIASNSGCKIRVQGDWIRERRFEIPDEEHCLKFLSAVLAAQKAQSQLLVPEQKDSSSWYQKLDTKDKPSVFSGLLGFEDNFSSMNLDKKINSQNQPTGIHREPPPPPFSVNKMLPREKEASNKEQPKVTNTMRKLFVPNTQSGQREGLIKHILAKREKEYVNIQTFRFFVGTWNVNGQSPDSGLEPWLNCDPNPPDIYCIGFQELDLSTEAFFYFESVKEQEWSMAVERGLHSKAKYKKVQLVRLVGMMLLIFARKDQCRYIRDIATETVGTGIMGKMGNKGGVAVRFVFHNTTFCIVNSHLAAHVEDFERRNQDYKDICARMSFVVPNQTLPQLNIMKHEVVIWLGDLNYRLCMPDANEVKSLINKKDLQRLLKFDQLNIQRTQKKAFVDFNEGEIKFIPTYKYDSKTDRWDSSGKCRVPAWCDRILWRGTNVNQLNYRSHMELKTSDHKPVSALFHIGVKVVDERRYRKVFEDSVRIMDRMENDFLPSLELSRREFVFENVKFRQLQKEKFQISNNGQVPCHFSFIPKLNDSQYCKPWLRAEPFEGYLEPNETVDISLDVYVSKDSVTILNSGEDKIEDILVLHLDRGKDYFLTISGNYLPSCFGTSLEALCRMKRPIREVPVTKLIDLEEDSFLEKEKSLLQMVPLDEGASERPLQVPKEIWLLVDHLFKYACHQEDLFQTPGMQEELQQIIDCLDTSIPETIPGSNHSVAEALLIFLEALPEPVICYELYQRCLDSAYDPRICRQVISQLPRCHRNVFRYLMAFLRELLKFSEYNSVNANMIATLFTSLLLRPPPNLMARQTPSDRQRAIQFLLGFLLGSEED

| Substance | fold co-precipitation above the HA-mCherry control [1] [fold] | EC50 [2] [nM] | EC50 [3] [nM] | EC50 [4] [nM] |
| --- | --- | --- | --- | --- |
| AP complex beta subunit (from UniProt P63010 1-937) (natural protein) | 29.5 |  |  |  |
| GFP-tagged, full-length OCRL (from UniProt Q01968 1-901) (natural protein) | 27.5 |  |  |  |
| GST-SdhA-CBM2 (1029-1260aa) (from UniProt Q6RCQ3 1029-1260) (domain or fragment) |  | 87.4 | 80.7 |  |
| GST-SdhA-CBM2A (1029-1080aa) (from UniProt Q6RCQ3 1029-1080) (domain or fragment) |  |  | 27.2 | 8.1 |
